These results are taken from the nanobody polyreactivity screen of Harvey et al. (2022).

The data set in a line: yeast display, Sf9 membrane polyspecificity reagent, FACS + sequencing; frameworks hold sequencing errors. Summed up: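 Galactose-induced (36–48 hours) yeast carrying a synthetic nanobody display library were exposed to 10% biotinylated, detergent-solubilized Sf9 membrane reagent at 4 °C for 1 hour. FACS followed streptavidin microbead enrichment, using low and high (top ~1%) gates for expression (anti-HA) and reagent binding (streptavidin). Colony PCR, MiSeq 2 × 250 sequencing and CDR-length filtering followed. Labels for polyreactivity reflect the gate of origin.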
In the case of “QVQLVESGGGLVQAGGSLRLSCAASGSIFISYAMGWYRQAPGKERELVAAISRSAGRTYYADSVKGRFTISRDNAKNTVYLQMNSLKPEDTAVYYCAASGYKNGVYTYGYWGQGTQVTVSS”, the “polyreactivity (PSR sort gate)” value is on record as “high polyreactivity”.

Regarding “QVQLVESGGGLVQAGGSLRLSCAASGSIFITYAMGWYRQAPGKERELVAAIRDSGDRTYYADSVKGRFTISRDKAKNTDYLQKNSLKPEDTAVYYCNARWQEPLKYDYWGQGTQVTVSS”, the “polyreactivity (PSR sort gate)” value is reported as “low polyreactivity”.

For the sequence “QVQLVESGGGLVQAGGSLRLSCAASGSIFITYAMGWYRQAPGKERELVAAIRDSGDRTYYADSVKGRFTISRDNAKNTVYLQMNRLKPEETAVYYCNARWQEPLKYDYWGQGTQVTVSS”, the “polyreactivity (PSR sort gate)” value is “low polyreactivity”.

Turning to “QVQLVESGGGLVQAGGSLRLSCAASGSIFIVYAMGWYRQAPGKERELVATITSGGSTNYADSVKGRFTISRDNAKNTVYLQMNSLKPEDTAVYYCATQFPPSTIYDYWGQGTQVTVSS”, the “polyreactivity (PSR sort gate)” value is “low polyreactivity”.

As for “QVQLVESGGGLVQAGGSLRLSCAASGSIFIYNAMGWYRQAPGKERELVAAISSSGGSTYYADSVKGRFTISRDNAKNTVYLQMNSLKPEDTAVYYCAARTYYVRGLGGRTGMDYWGQGTQVTVSS”, the “polyreactivity (PSR sort gate)” value is on record as “low polyreactivity”.

As to “QVQLVESGGGLVQAGGSLRLSCAASGSIFIYNAMGWYRQAPGKERELVAAISSSGGSTYYADSVKGRFTISRDYAKNTVYLQLNSLKPEDTAVYYCAARTYYVRGLGGRPGMDYWGQGTHVTVSS”, the “polyreactivity (PSR sort gate)” value is “low polyreactivity”.

Regarding “QVQLVESGGGLVQAGGSLRLSCAASGSIFIYYAIGWYRKAPGKERELVAAIDRSGGNTYYADSVKGRFTISRDNAKNTVYLQMNSLKPEDTAVYYCAALVHRRVQYDYWGQGTQVTVSS”, the “polyreactivity (PSR sort gate)” value is given as “high polyreactivity”.

Take “QVQLVESGGGLVQAGGSLRLSCAASGSIFIYYAMGWYRQAPGKEMELVAAISSSGGSTYYADSVKGRFTISRDNAKNTVYLQMNSLKPEDTAVYYCAAAYGGRLRYTAGYYWGQGTQVTVSS”: the “polyreactivity (PSR sort gate)” value is given as “high polyreactivity”.

Take “QVQLVESGGGLVQAGGSLRLSCAASGSIFIYYAMGWYRQAPGKERELVAAIDYSGDSTYYADSVKGRFTISRDNAKNTVYLQMNSLKPEDTAVYYCAVYYAGWGDYWGQGTQVTVSS”: the “polyreactivity (PSR sort gate)” value is “low polyreactivity”.

Regarding “QVQLVESGGGLVQAGGSLRLSCAASGSIFIYYAMGWYRQAPGKERELVAAISWSGGDTYYADSVKGRFTISRDNAKNTVYFHMNILKPEDTAVYYCNADYYPYYPYTAWDTVLTHDEYWGQGTQVTVSS”, the “polyreactivity (PSR sort gate)” value was “low polyreactivity”.

Take “QVQLVESGGGLVQAGGSLRLSCAASGSIFIYYAMGWYRQAPGKERELVAAISWSGGDTYYADSVKGRFTISRDNAKNTVYLQMNSLKPEDTAVYYCNADYDPYYPYTAWDTVLTHDEYWGQGTQVTVSS”: the “polyreactivity (PSR sort gate)” value is recorded as “low polyreactivity”.

For the sequence “QVQLVESGGGLVQAGGSLRLSCAASGSIFIYYAMGWYRQAPGKERELVAGININGGSTYYADSVKGRFTISRDNAKNTVYLQMNSLKPEDTAVYYCAADELWWTYWDFVTNWYQRDYWGQGTQVTVSS”, the “polyreactivity (PSR sort gate)” value was “low polyreactivity”.

With “QVQLVESGGGLVQAGGSLRLSCAASGSIFIYYSMGWYRQAPGKERELVAAISWSGGDTYYADSVKGRFTISRDNAKNTVYLQMNSLKPEDTAVYYCAADSVTRPAGDYWGQGTQVTVSS”, the “polyreactivity (PSR sort gate)” value is reported as “low polyreactivity”.

Take “QVQLVESGGGLVQAGGSLRLSCAASGSIFKDNAMGWYRQAPGKERELVAAITSGASTNYADSVKGRFTISRDNAKNTVYLQMNSLKPEDTAVYYCAAVLAGGVYWVVHYDYWGQGTQVTVSS”: the “polyreactivity (PSR sort gate)” value is reported as “low polyreactivity”.

For “QVQLVESGGGLVQAGGSLRLSCAASGSIFKEYAMGWYRQAPGKERELVAAITGSGGSTFYADSVKGRFTISRDNAKNTVYLQMNSLIPEDTAVYYCNARRPAKSRYRHDYWGQGTQVTVSS”, the “polyreactivity (PSR sort gate)” value was “high polyreactivity”.

For “QVQLVESGGGLVQAGGSLRLSCAASGSIFKEYTMGWYRQAPGKERELVAAITWSDGSTDYADSVKGRFTISRDNAKNTVYLQMNSLKPEDTAVYYCAADYDYPYFWSSGYIDDYWGQGTQVTVSS”, the “polyreactivity (PSR sort gate)” value is “low polyreactivity”.

In the case of “QVQLVESGGGLVQAGGSLRLSCAASGSIFKFNTMGWYRQAPGKERELVASITRVGSTYYADSVKGRFTISRDNAKNTVYLQMNSLKPEDTAVYYCAARFLYYTYKTFRTYDYWGQGTQVSVSS”, the “polyreactivity (PSR sort gate)” value is recorded as “high polyreactivity”.

With “QVQLVESGGGLVQAGGSLRLSCAASGSIFKFYTMGWYIQAPGKERELVATITSGGRTNYADSVKGRFTISPDNAKNTVYLQMNTLKPEDTAVYYCAATWLRVKYRFKGYDYWGQGTQVTVSS”, the “polyreactivity (PSR sort gate)” value is reported as “high polyreactivity”.

As for “QVQLVESGGGLVQAGGSLRLSCAASGSIFKFYTMGWYRQAAGKEWELVATISRSGGGTFYADSVKGRFTISRDNAKNTVYLQMNSLKPEDTAVYYCAADPAFTHYPYGYGYWGQGTQVTVSS”, the “polyreactivity (PSR sort gate)” value is on record as “low polyreactivity”.

Take “QVQLVESGGGLVQAGGSLRLSCAASGSIFKGYAMGWYRQAPGKERELVAAITIDGSTYYADSVKGRFTISRDNAKNTVYLQMNSLKPEDTAVYYCAAVYLWYGSWPLHFAAYDYWGQGTQVTVSS”: the “polyreactivity (PSR sort gate)” value is given as “low polyreactivity”.

As for “QVQLVESGGGLVQAGGSLRLSCAASGSIFKGYAMGWYRQAPGKERELVAAITYSGGGTYYADSVKGRFTISRDNAKNTVYIQMNILKPEDTAVYYCNADRYYPDDLSDGVGTYDYWGQGTQVTVSS”, the “polyreactivity (PSR sort gate)” value is listed as “low polyreactivity”.

In the case of “QVQLVESGGGLVQAGGSLRLSCAASGSIFKGYAMGWYRQAPGKERELVASITSSGASTYYADSGKGRFTISRDNAKNTVYLHMNSLKPEDTAVYYCATDHESVRVLVSSTSDYDYWGQGTQVTVSS”, the “polyreactivity (PSR sort gate)” value is reported as “low polyreactivity”.

“QVQLVESGGGLVQAGGSLRLSCAASGSIFKHNDMGWYRQAPGKERELVAAISRSGGSTYYADSVKGRFTISRDNAKNTVYLQMNSLKPEDTAVYYCAKDGVGAPSTYNYWGQGTQVTVSS”: the “polyreactivity (PSR sort gate)” value is “high polyreactivity”.

With “QVQLVESGGGLVQAGGSLRLSCAASGSIFKKYAKGWYIQAPGKERELVAAISKSGGSTYYADSVKGRFTISRDNAKTTVYLQMNSLKPEDTAVYYCAAAAGGSAYWDYDYWGQGTQVTVSS”, the “polyreactivity (PSR sort gate)” value is given as “low polyreactivity”.

In the case of “QVQLVESGGGLVQAGGSLRLSCAASGSIFKKYAMVWYRQAPGKERELVAAITRGTYYADSVKGRFTISRDNAKNTVYLQMNSLKPEDTAVYFCNREYWGRGYYRVRGEYDYWGQGTQVTVSS”, the “polyreactivity (PSR sort gate)” value is reported as “low polyreactivity”.

For “QVQLVESGGGLVQAGGSLRLSCAASGSIFKPYAMGWSRQAPGKERELVAAISRSGSTYYADSVKGRFTISRDNAKNTVYLQMNSLKPEDTAVYYCAKDVRPNYYAAFNYWGQGTQVTVSS”, the “polyreactivity (PSR sort gate)” value is on record as “low polyreactivity”.

For the sequence “QVQLVESGGGLVQAGGSLRLSCAASGSIFKPYAMGWYRQAPGKERELVAAISRSGSTYYADSVKGRFTISRDNAKNTVYLQMNSLKPEDTAVYYCAKDVRPNYYAAFNYWGQGTQVTVSS”, the “polyreactivity (PSR sort gate)” value is on record as “low polyreactivity”.

Take “QVQLVESGGGLVQAGGSLRLSCAASGSIFKPYAMGWYRQAPGKERELVAAITRSGGSTYYADSVKGRFTISRDKAKNTVYLQMNSLKPEDTAVYYCAAGNAPYFRYGSKKYGYWGQGTQVTVSS”: the “polyreactivity (PSR sort gate)” value is “high polyreactivity”.

As to “QVQLVESGGGLVQAGGSLRLSCAASGSIFKPYAMGWYRQAPGKERELVARISWSTGRTYYADSVKGRFTISRDNAKNTVYLQMNSLKPEDTEVYDCDAAVAVRYGYWGQGTQVTVSS”, the “polyreactivity (PSR sort gate)” value is given as “high polyreactivity”.
